Drawing on patent publication US20090022728A1, this text covers A450 ELISA for eight molecules.

Where a chain is given by its changes, count along the chain named. Numbers in names are those of the source.

Sequences and labels used below:
B1: 6G heavy chain variant 7D (N101C) (antibody, V domains shown)
VH: QVQLVQSGAEVKKPGASVKVSCKASGYTFTTYAIHWVRQAPGQGLEWMGFTSPYSGVSNYNQKFKGRVTMTRDTSTSTVYMELSSLRSEDTAVYYCARFDCYDRGYVRDYWGQGTLVTVS
VL: DIVMTQSPDSLAVSLGERATINCRASESVDNDRISFLNWYQQKPGQPPKLLIYAATKQGTGVPDRFSGSGSGTDFTLTISSLQAEDVAVYYCQQSKEFPWSFGGGTKVEIKR
B2: 6G heavy chain variant 8H (N101H) (antibody, V domains shown)
VH: B1 VH with C101H
VL: B1 VL
B3: 6G heavy chain variant 9E (N101R) (antibody, V domains shown)
VH: B1 VH with C101R
VL: B1 VL
B4: 6G light chain variant 10E (S95L) (antibody, V domains shown)
VH: B1 VH with C101N
VL: B1 VL with S95L
B5: 6G light chain variant 5B (Q94G) (antibody, V domains shown)
VH: B1 VH with C101N
VL: B1 VL with Q94G
B6: 6G light chain variant 7F (Q94K) (antibody, V domains shown)
VH: B1 VH with C101N
VL: B1 VL with Q94K
B7: 6G light chain variant 7E (Q94R) (antibody, V domains shown)
VH: B1 VH with C101N
VL: B1 VL with Q94R
B8: 6G light chain variant 6E (E97P) (antibody, V domains shown)
VH: B1 VH with C101N
VL: B1 VL with E97P

Chain of Aβ1-40 peptide (peptide, as listed by the source): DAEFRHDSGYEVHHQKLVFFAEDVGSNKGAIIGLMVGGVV

One experiment addresses Aβ1-40 peptide. The experiment is described as follows: ELISA, nonbiotinylated peptide on plate. Background: In an ELISA, binding on a coated surface is turned into a signal by an enzyme label.
For B1, the A450 ELISA was determined as 0.23 A450.

As for B2, the A450 ELISA was found to be 0.21 A450. For the molecule B3, the A450 ELISA amounted to 0.22 A450.

A further experiment deals with Aβ1-42 peptide. The experiment can be described thus: ELISA, nonbiotinylated peptide on plate.
Chain of Aβ1-42 peptide (peptide, as listed by the source): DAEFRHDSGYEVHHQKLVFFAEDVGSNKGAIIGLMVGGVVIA
In the case of B1, the A450 ELISA was found to be 0.31 A450. B4 showed an A450 ELISA of 0.12 A450. The molecule B5 registered an A450 ELISA of 0.14 A450.

B6 showed an A450 ELISA of 0.19 A450. Take B7: the A450 ELISA came to 0.18 A450.

The molecule B8 registered an A450 ELISA of 0.2 A450.
